Measured values published in article PMC3805524, “GmSAL1 Hydrolyzes Inositol-1,4,5-Trisphosphate and Regulates Stomatal Closure in Detached Leaves and Ion Compartmentalization in Plant Cells” (PLoS ONE, 2013).

Substrate: O=P(O)(O)O[C@@H]1[C@H](O)[C@H](O)[C@@H](OP(=O)(O)O)[C@H](OP(=O)(O)O)[C@H]1O
Assay: purified protein
Format: biochemical, Glycine max
Conditions: 25 mM Tris-HCl pH 7.5, 1 mM MgCl2, 37°C, 30 min, IP3 0.0125-0.2 mM

B1: GmSAL1 (Glycine max) (protein)
chain: MPYEKEFAAAKKAATLAARLCKKVQKALLQSDVHSKSDKSPVTVADYGSQALVSFILERELPSEPFSLVAEEDSGDLRKESGQDTLKRITELVNDTLASEGSNSFSTLTTDDVLAAIDGGKSEGGSVGRHWVLDPIDGTKGFVRGDQYAIALALLDEGKVVLGVLACPNLPLASIGSNQQLSSSNEVGCLFFAKVGDGTYMQALGGSTQTRVHVCDIDNPEEASFFESFEAAHSSHDLSSSIAEKLGVKAPPVRIDSQAKYGALSRGDGAIYLRFPHKGYREKIWDHAAGSIVVTEAGGIAMDAAGNPLDFSKGKFLDVVSGIIVTNQKLKASLLRAVKEALNEKVSSL
notes: cloning primers encode N-terminal MPYEKEF and C-terminal KVSSL
B1 showed a Km of 10.8 ± 0.1 µM and a kcat of 1.13 ± 0.217 s⁻¹.
